T1: GST-Pta1 (yeast, UniProt Q01329 1-785)
T1 sequence: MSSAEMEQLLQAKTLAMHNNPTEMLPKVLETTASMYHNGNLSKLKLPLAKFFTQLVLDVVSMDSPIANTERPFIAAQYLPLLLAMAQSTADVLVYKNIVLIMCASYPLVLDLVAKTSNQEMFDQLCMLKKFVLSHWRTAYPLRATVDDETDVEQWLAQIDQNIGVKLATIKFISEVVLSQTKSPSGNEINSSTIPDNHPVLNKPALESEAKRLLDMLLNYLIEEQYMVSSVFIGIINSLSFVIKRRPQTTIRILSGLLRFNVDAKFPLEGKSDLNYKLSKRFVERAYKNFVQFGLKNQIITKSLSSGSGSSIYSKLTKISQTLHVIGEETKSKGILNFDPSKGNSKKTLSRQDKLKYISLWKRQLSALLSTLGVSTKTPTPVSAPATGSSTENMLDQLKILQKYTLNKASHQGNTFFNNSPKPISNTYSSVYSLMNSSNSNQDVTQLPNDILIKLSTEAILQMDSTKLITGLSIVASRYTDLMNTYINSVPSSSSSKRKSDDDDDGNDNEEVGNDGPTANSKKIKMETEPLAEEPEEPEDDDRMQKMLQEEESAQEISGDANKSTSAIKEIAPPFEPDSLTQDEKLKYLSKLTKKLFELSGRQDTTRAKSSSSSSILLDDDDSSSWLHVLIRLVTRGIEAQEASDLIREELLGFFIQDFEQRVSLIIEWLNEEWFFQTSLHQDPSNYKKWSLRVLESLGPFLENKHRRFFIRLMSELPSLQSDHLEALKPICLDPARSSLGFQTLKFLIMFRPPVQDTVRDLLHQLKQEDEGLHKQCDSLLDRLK

T2: GST-hTFIIB (human, UniProt Q00403 1-316)
T2 sequence: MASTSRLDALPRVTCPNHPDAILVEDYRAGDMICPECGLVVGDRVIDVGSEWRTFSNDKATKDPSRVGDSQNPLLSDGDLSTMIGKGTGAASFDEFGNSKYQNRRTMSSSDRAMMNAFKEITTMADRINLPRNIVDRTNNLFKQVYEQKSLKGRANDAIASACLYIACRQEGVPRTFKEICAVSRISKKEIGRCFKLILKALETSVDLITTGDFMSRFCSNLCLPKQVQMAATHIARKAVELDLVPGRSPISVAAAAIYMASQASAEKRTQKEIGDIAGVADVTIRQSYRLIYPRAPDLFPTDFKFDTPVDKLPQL

B1: Hat-hSsu72Δ1-12 (domain or fragment)
chain: SSNQNRSMEAHNILSKRGFSVRSFGTGTHVKLPGPAPDKPNVYDFKTTYDQMYNDLLRKDKELYTQNGILHMLDRNKRIKPRPERFQNCKDLFDLILTCEERVYDQVVEDLNSREQETCQPVHVVNVDIQDNHEEATLGAFLICELCQCIQHTEDMENEIDELLQEFEEKSGRTFLHTVCFY
B2: Hat-hSsu72 (natural protein)
chain: MPSSPLRVAVVCSSNQNRSMEAHNILSKRGFSVRSFGTGTHVKLPGPAPDKPNVYDFKTTYDQMYNDLLRKDKELYTQNGILHMLDRNKRIKPRPERFQNCKDLFDLILTCEERVYDQVVEDLNSREQETCQPVHVVNVDIQDNHEEATLGAFLICELCQCIQHTEDMENEIDELLQEFEEKSGRTFLHTVCFY

How the values were obtained:
[1] = target: T1, GST-Pta1; test: pull-down
[2] = target: T2, GST-hTFIIB; test: pull-down

| Binder | binding result [1] | binding result [2] |
| --- | --- | --- |
| B1 | binds | binds |
| B2 | binds | binds |

Source: publication PMC548335 (Nucleic Acids Research, 2005)
